Reference: publication PMC314469, “Protein Interaction Networks by Proteome Peptide Scanning” (PLoS Biology, 2004)

T1: Rvs167 SH3 (RV167_YEAST), P39743
T1 chain: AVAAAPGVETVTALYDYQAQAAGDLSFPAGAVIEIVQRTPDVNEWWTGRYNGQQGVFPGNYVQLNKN

T2: Yhr016c SH3 (YSC84_YEAST), P32793
T2 chain: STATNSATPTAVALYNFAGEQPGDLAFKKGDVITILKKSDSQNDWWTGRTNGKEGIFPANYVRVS

T3: Myo5 SH3 (MYO5_YEAST), Q04439
T3 chain: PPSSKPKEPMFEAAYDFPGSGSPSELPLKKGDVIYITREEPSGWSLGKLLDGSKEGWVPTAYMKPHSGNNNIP

T4: Boi1 SH3 (BOI1_YEAST), P38041
T4 chain: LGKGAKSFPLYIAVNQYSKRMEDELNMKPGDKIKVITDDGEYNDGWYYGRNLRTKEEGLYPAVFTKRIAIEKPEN

T5: Boi2 SH3 (BOI2_YEAST), P39969
T5 chain: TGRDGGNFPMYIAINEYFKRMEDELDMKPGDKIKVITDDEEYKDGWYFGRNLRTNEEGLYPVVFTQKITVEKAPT

T6: Yfr024 SH3 (LSB3_YEAST), P43603
T6 chain: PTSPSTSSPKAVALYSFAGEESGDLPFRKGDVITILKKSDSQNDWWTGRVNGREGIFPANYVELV


How the values were obtained:
Assay in all cases: SPOT array
[1] = target: T1, Rvs167 SH3 (RV167_YEAST), P39743
[2] = target: Sho1 SH3 (SHO1_YEAST), P40073
[3] = target: T2, Yhr016c SH3 (YSC84_YEAST), P32793
[4] = target: T3, Myo5 SH3 (MYO5_YEAST), Q04439
[5] = target: T4, Boi1 SH3 (BOI1_YEAST), P38041
[6] = target: T5, Boi2 SH3 (BOI2_YEAST), P39969
[7] = target: T6, Yfr024 SH3 (LSB3_YEAST), P43603

Sequence of Sho1 SH3 (SHO1_YEAST), P40073 (P40073 295-366): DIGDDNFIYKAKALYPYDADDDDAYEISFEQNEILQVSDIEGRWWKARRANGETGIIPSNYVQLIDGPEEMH

Binder	normalised SPOT signal, Boehringer light units (BLU); mean over the file's lines of this peptide [1]	normalised SPOT signal, Boehringer light units (BLU); mean over the file's lines of this peptide [2]	normalised SPOT signal, Boehringer light units (BLU); mean over the file's lines of this peptide [3]	normalised SPOT signal, Boehringer light units (BLU); mean over the file's lines of this peptide [4]	normalised SPOT signal, Boehringer light units (BLU); mean over the file's lines of this peptide [5]	normalised SPOT signal, Boehringer light units (BLU); mean over the file's lines of this peptide [6]	normalised SPOT signal, Boehringer light units (BLU); mean over the file's lines of this peptide [7]
HFPSRSQPSDPKLQ [YKR028W 906-919]	68.1	321	32.6	258	91.5	17.7	294
HISDKMNPASPQYF [YDR266C 250-263]	30.3	115	27.4	159	113	18.2	161
HKFVKSSPVVPFDD [YOR335C 27-40]	153	53.1	40.3	151	247	7.2	122
HTIPKSGPIVPYVL [YGR010W 26-39]	28.2	42.1	18.7	164	58.4	33.2	47.8
HEASKSFPKAPQAS [YKL105C 877-890]	13.4	70.5	26.5	289	0	7.4	27.3
HEREKALPPIPFTT [YLR425W 196-209]	42.8	57900	15.2	215	54.9	1.7	158
HFNTKKIPELPSQF [YML051W 376-389]	235	1960	4.9	467	118	35.7	204
HELVKSDPHFPYGT [YDL117W 838-851]	29.9	11.7	17	229	37.2	32.3	2.5
HILEKYSPFDPSGR [YPL148C 31-44]	15.9	89.5	34.1	166	26.1	19.3	82.7
HLVRKVAPTKPMYS [YHR070W 477-490]	252	121	70.2	478	283	69.3	947
HEVPKRSPEKPSNP [YNL278W 806-819]	46.4	64.4	61.8	172	91.8	2.4	148
HNAAKPIPHVPQAS [YKR067W 8-21]	20.6	82.1	59.3	62.3	114	1.8	8.5
GYNPKTVPFVPISG [YBR118W 180-193]	25	25	37.2	108	39.8	5.8	13.3
HSTPKPLPPVPALS [YNL106C 1030-1043]	94.4	21600	29.9	144	1.1	28.4	470
HRLFKSTPGLPKLW [YAL048C 356-369]	605	642	96.9	266	226	123	2840
HLLGKEGPSAPNPS [YNL287W 476-489]	49.5	69.5	39.7	124	89	22.1	14.5
